Results on eight molecules are retold here after patent US20110286916A1 (published 2011).

Substitutions are numbered along the chain they refer to.

Test [1] addresses human Notch3-Gal4 chimeric receptor on U2OS FlpIn TREx cells (human, UniProt Q9UM47 40-2321). The experiment in a line: cell-based or functional assay.
For test [2], the target named is T1, Notch1 extracellular fragment (amino acid 19-526) Fc fusion protein, R&D Systems 3647-TK (human, UniProt P46531 19-526).
T1 construct: bought protein; also called Notch1/Fc; Notch1-ECD Fc fusion protein; not shown: Fc of the bought fusion protein
The experiment in a line: BIAcore SPR, Notch1/Fc on CM5, Mab analyte, 1:1 binding. The method, then: All experiments were performed at 25° C. at a flow rate of 40 μl/min. […] FC1 was used as the reference cell. Specific signals were the results of differences of signals obtained on FC2 versus FC1. […] The dissociation phase of the analyte was monitored over a period of time ranging 10-30 minutes. Running buffer was also injected under the same conditions as a reference.
Equilibrium dissociation constant (KD) was calculated by the ratio between dissociation (koff) and association (kon) rate constants.
(Surface plasmon resonance follows binding to a sensor surface in real time, without labels.)

Test [3] addresses T2, human full-length Notch3 with C-terminal FLAG tag, stably expressed on 293 FlpIn (TREx) cells (human, UniProt Q9UM47 40-2321).
T2 construct: whole, on cells; made by the same strategy as the Notch1 line; also called 293-N3; hN3
The experiment in a line: FACS, phage scFv. On the technique in general: Flow cytometry measures light scatter and fluorescence of single cells or particles in a stream.

The target in test [4] is T3, human full-length Notch1 with C-terminal FLAG tag, stably expressed on 293 FlpIn (TREx) cells (human, UniProt P46531 19-2555).
T3 construct: tetracycline/doxycycline-induced expression from pcDNA5/FRT/TO-HN1+FLAG; also called hN1; 293_N1
The experiment in a line: FACS, phage scFv.

B1: WC-629 (antibody, human IgG1, lambda, V domains shown)
VH: EVQLVQSGAEVKKPGSSVKVSCKASGGTLSSYTVSWLRQAPGQGLEWMGRIIPILDRANYAQKFQGRVTITADKSTSTAYMELNSLRSDDTAVYYCARSIGAAGDGVWFDPWGQGTMVTVSS
VL: QAVLTQPSSVSGAPGQRVTISCTGSSSNIGAGYDVHWYQQLPGTAPKLLIFDNKNRPSGVPDRFSGSNSGTSASLAITGLQAEDEAEYYCQSYDNNLSGRVFGGGTKLTVLQ
Turning to B1, the “hN3, inhibition of Luc activity at [166 nM] Mab” value in test [1] was below 10%.

B2: HN1S3-133 (antibody, human IgG1, lambda, V domains shown)
VH: QVQLVQSGPEVKKPGTSVKVSCKASGFTFTSSAVQWVRQARGQRLEWIGWIVVGSGNTNYAQKFQERVTITRDMSTSTAYMELSSLRSEDTAVYYCVADTVYWGQGTLVTVSS
VL: QSVLTQPPSVSEAPRQRVTISCSGSSSNIGNNAVNWYQQLPGEAPKLLIYYDDLLPSGVSDRFSGSKSGSSASLAISGLQAEDEADYYCATWDDSLNAWVFGGGTKVTVLQ
In test [2], B2 displayed a Kd of 0.649 nM, a koff of 0.0004 s⁻¹ and a kon of 616000 M⁻¹ s⁻¹.

B3: HN1S3-147 (antibody, human IgG1, lambda, V domains shown)
VH: B2 VH with Q105K
VL: not shown
In test [2], B3 displayed a Kd of 0.269 nM, a koff of 0.000285 s⁻¹ and a kon of 1.06e+06 M⁻¹ s⁻¹.

B4: N1wc621 (scFv, V domains shown)
VH: EVQLVQSGAEVKKPGASVKVSCKASGYTFTGYYIHWVRQAPGQGLEWMGWISPNSGVTNYAQRFQGRVTMSRDTSITTAYMELNRLGSDDTAVYYCAREGREDGVLFDYWGRGTLVTVSS
VL: QAVLTQPSSVSGAPGQTVTISCAGSSSNLGAGYDAHWYQHLPGAVPRLLIYNNSKRPSGVPDRFSASKSGSSASLAITGLQPEDEADYYCQTYDTRLSGSMLFGGGTKVTVL
notes: phage scFv
With B4, the binding result in test [3] and in test [4] was “binds” in each case.

B5: N1wc45 (scFv, V domains shown)
VH: EVQLVQSGAEVKKPGASVKVSCKASGYSFRSYGIVWVRQAPGQGLEWMGWISAYNGNTNYAQKLQGRVTMTTDTSTSTAYMELRSLRSDDTAVYYCVRGDRHYDILTGYSPVWFDPWGKGTTVTVSS
VL: SSELTQDPAVSVALGQTVRITCQGDSLRSYYASWYQQKPGQAPVLVIYGKNNRPSGIPDRFSGSSSGNTASLTITGAQAEDEADYYCNSRDSSGNHVVFGGGTKLTVL
notes: phage scFv
With B5, the binding result in test [3] and in test [4] was “binds” each time.

B6: hN1wc-179 (antibody, human IgG1, lambda, V domains shown)
VH: EVQLVQSGAEVKKPGASVKVSCKASGYNFTGYYMHWVRQAPGQGLEWMGWINPNSGGTNYAQKFQGRVTMTRDTSISTAYMELSRLRSDDTAVYYCATDSFDYWGQGTMVTVSS
VL: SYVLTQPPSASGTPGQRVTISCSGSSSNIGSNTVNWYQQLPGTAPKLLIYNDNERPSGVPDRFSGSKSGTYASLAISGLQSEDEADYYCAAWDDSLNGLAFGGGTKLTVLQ
Regarding B6, in test [2], the Kd worked out at 7.36 nM, the koff turned out to be 0.00363 s⁻¹ and the kon was 493000 M⁻¹ s⁻¹.

B7: N1wc39 (scFv, V domains shown)
VH: EVQLVQSGAEVKKPGASVKLSCKTSGHTFTNYAFHWLRQAPGQRPEWLGWINADNGNTKYSQSFQDRVTITRDISANTAYMEMSRLKSEDTAYYYCARDPWSGVLDHWGKGTLVTVSS
VL: DIQLTQSPSSVSASIGDTVTITCRASQNINKWLAWYQQKPGKAPYLLISTASNLQSGVPSRFSGTGSGTAFTLTISRVQPEDFANYYCQQAFSFPITFGQGTRLEIK
notes: phage scFv
As to B7, the binding result in test [3] and in test [4] was “binds” throughout.

B8: WC-75 (antibody, human IgG1, lambda, V domains shown)
VH: GVQLVQSGGGLVQPGGSLRLSCAASGFTFDDYAMHWVRQAPGKGLEWVSSISWHSRTIAYADSVKGRFSISRDNAKNSLYLQMNSLRPEDTAVYYCAKASYLSTSSSLDYWGRGTLVTVSS
VL: QSVLTQPGSVSGSPGQSITISCTGTSSDVGGYNYVSWYQQHPGKAPKLMIYEGSKRPSGVSNRFSGSKSGNTASLTISGLQAEDEADYYCSSYTTRSTRVFGGGTKLTVLQ
As for B8, in test [1], the “hN3, inhibition of Luc activity at [166 nM] Mab” value was below 10%.

As a reminder, the Kd is the constant that tells how readily two partners part at equilibrium. Read a low Kd as higher affinity. What is called koff is the first-order rate constant of dissociation. In general, kon refers to the second-order rate constant of association. A higher kon goes with faster complex formation.
